Measurements taken from article PMC11417369, “DNA sequence and chromatin differentiate sequence-specific transcription factor binding in the human malaria parasite Plasmodium falciparum”.

Assays:
AP2-HC D1 = biological target: T1, AP2-HC D1 (Plasmodium falciparum, UniProt Q8IKR9 1316-1374); experiment: gcPBM; about 25 ug protein; PBS, 1% milk, 0.2 mg/ml BSA, salmon testes DNA, 0.03% Triton X-100; settings: tags: N-terminal GST (pGEX-4T-1), kept; label: surface-attached array probe
T1 sequence: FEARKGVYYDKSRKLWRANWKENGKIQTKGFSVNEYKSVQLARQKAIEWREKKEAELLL

PF3D7_0420300 D1 = biological target: T2, PF3D7_0420300 D1 (Plasmodium falciparum, UniProt Q8I1N6 1956-2015); experiment: as above; settings: tags: N-terminal GST (pGEX-4T-1), kept; label: surface-attached array probe
T2 sequence: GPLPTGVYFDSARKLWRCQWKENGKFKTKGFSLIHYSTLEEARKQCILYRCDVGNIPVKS

B1: CACACA_negctrl_site680 (dsDNA)
DNA 1: AACACTCAAAAAAATTTAAATAAAAAAAAAAAAAAA
DNA 2: TTTTTTTTTTTTTTTATTTAAATTTTTTTGAGTGTT
- binding signal (AP2-HC D1): 9.05 ln median PBM intensity, better of two orientations
- binding signal (PF3D7_0420300 D1): 8.7 ln median PBM intensity, better of two orientations

B2: CACACA_negctrl_site484 (dsDNA)
DNA 1: ATTCATATTAAATATATATATATATATATATATATA
DNA 2: TATATATATATATATATATATATATTTAATATGAAT
- binding signal (AP2-HC D1): 9.51 ln median PBM intensity, better of two orientations

B3: CACACA_negctrl_site1096 (dsDNA)
DNA 1: ATTATATTCTTTACTACCAATTAGTAGAAAATAAAA
DNA 2: TTTTATTTTCTACTAATTGGTAGTAAAGAATATAAT
- binding signal (AP2-HC D1): 9.31 ln median PBM intensity, better of two orientations
- binding signal (PF3D7_0420300 D1): 8.9 ln median PBM intensity, better of two orientations

B4: CACACA_negctrl_site1232 (dsDNA)
DNA 1: AATATTTTTCAATTTCATGTGCATTCATTGAAGTTA
DNA 2: TAACTTCAATGAATGCACATGAAATTGAAAAATATT
- binding signal (AP2-HC D1): 9.51 ln median PBM intensity, better of two orientations

B5: CACACA_negctrl_site660 (dsDNA)
DNA 1: TTTTCTTAATATTTCGTTTTACATAAACCTTTTAAA
DNA 2: TTTAAAAGGTTTATGTAAAACGAAATATTAAGAAAA
- binding signal (AP2-HC D1): 9.51 ln median PBM intensity, better of two orientations

B6: CACACA_site2305 (dsDNA)
DNA 1: TTCCCCCCCAGACACACACACACATACATACCACAT
DNA 2: ATGTGGTATGTATGTGTGTGTGTGTCTGGGGGGGAA
- binding signal (AP2-HC D1): 12.1 ln median PBM intensity, better of two orientations
- binding signal (PF3D7_0420300 D1): 10.4 ln median PBM intensity, better of two orientations

B7: CACACA_negctrl_site1286 (dsDNA)
DNA 1: TTGTATTCCTTTTACAACTACCATGAAGAGAATTTT
DNA 2: AAAATTCTCTTCATGGTAGTTGTAAAAGGAATACAA
- binding signal (AP2-HC D1): 9.49 ln median PBM intensity, better of two orientations

B8: CACACA_negctrl_site607 (dsDNA)
DNA 1: TGTGTCAAGTTTAATAAACGCATATAATATATATGA
DNA 2: TCATATATATTATATGCGTTTATTAAACTTGACACA
- binding signal (AP2-HC D1): 9.51 ln median PBM intensity, better of two orientations

B9: CACACA_negctrl_site1762 (dsDNA)
DNA 1: TTTTTTTCTTCTTTTCTCTTAAAAATATTGAATATT
DNA 2: AATATTCAATATTTTTAAGAGAAAAGAAGAAAAAAA
- binding signal (AP2-HC D1): 9.49 ln median PBM intensity, better of two orientations

B10: CACACA_site7754 (dsDNA)
DNA 1: TAAAATAAAACAAACACACACACACGGACACAAAAA
DNA 2: TTTTTGTGTCCGTGTGTGTGTGTTTGTTTTATTTTA
- binding signal (AP2-HC D1): 11.9 ln median PBM intensity, better of two orientations
- binding signal (PF3D7_0420300 D1): 10.4 ln median PBM intensity, better of two orientations

B11: CACACA_negctrl_site148 (dsDNA)
DNA 1: TTTTTGATGAAATATTATTTTCCTGACTTGGATTAA
DNA 2: TTAATCCAAGTCAGGAAAATAATATTTCATCAAAAA
- binding signal (AP2-HC D1): 9.49 ln median PBM intensity, better of two orientations
- binding signal (PF3D7_0420300 D1): 8.86 ln median PBM intensity, better of two orientations

B12: CACACA_negctrl_site844 (dsDNA)
DNA 1: AATATCATCCTTTTTTTTTATAAAATTTAAAATATA
DNA 2: TATATTTTAAATTTTATAAAAAAAAAGGATGATATT
- binding signal (AP2-HC D1): 9.5 ln median PBM intensity, better of two orientations

B13: CACACA_negctrl_site1162 (dsDNA)
DNA 1: ACACAAAAAAAAAAAAAAAAAAAAAAAAAAAAGGAA
DNA 2: TTCCTTTTTTTTTTTTTTTTTTTTTTTTTTTTGTGT
- binding signal (AP2-HC D1): 9.5 ln median PBM intensity, better of two orientations

B14: CACACA_negctrl_site272 (dsDNA)
DNA 1: TACCTTTCTTATTATTGAAAAGGAATATATAAATAG
DNA 2: CTATTTATATATTCCTTTTCAATAATAAGAAAGGTA
- binding signal (AP2-HC D1): 9.13 ln median PBM intensity, better of two orientations
- binding signal (PF3D7_0420300 D1): 8.89 ln median PBM intensity, better of two orientations

B15: CACACA_negctrl_site842 (dsDNA)
DNA 1: ACTAAAAGATATATAATTTCTTTCTTATTTATTTTT
DNA 2: AAAAATAAATAAGAAAGAAATTATATATCTTTTAGT
- binding signal (AP2-HC D1): 9.49 ln median PBM intensity, better of two orientations

B16: CACACA_negctrl_site1685 (dsDNA)
DNA 1: ATATATATATAAATATAAATATATATATATATATAT
DNA 2: ATATATATATATATATATTTATATTTATATATATAT
- binding signal (AP2-HC D1): 9.5 ln median PBM intensity, better of two orientations

B17: CACACA_negctrl_site474 (dsDNA)
DNA 1: TAAAAAAAGGAAAACATACAATTCTATTTTTCAATA
DNA 2: TATTGAAAAATAGAATTGTATGTTTTCCTTTTTTTA
- binding signal (AP2-HC D1): 9.49 ln median PBM intensity, better of two orientations

B18: CACACA_negctrl_site1139 (dsDNA)
DNA 1: ATTTTTTTTTTTTTTATTCCCCTTTCGAAAAAAACC
DNA 2: GGTTTTTTTCGAAAGGGGAATAAAAAAAAAAAAAAT
- binding signal (AP2-HC D1): 9.47 ln median PBM intensity, better of two orientations
- binding signal (PF3D7_0420300 D1): 9.05 ln median PBM intensity, better of two orientations

B19: CACACA_negctrl_site721 (dsDNA)
DNA 1: TTTTAAAAAAAATAAAAAATAAACAATAATAAATAA
DNA 2: TTATTTATTATTGTTTATTTTTTATTTTTTTTAAAA
- binding signal (AP2-HC D1): 9.49 ln median PBM intensity, better of two orientations

B20: CACACA_negctrl_site1152 (dsDNA)
DNA 1: TCATATTTGCCTTTTTATTTAGAACACAAAAAAAAA
DNA 2: TTTTTTTTTGTGTTCTAAATAAAAAGGCAAATATGA
- binding signal (AP2-HC D1): 9.29 ln median PBM intensity, better of two orientations
- binding signal (PF3D7_0420300 D1): 8.77 ln median PBM intensity, better of two orientations

B21: CACACA_negctrl_site1531 (dsDNA)
DNA 1: TATTTCCATTCATAATTTTGTAGAATATATAACCGT
DNA 2: ACGGTTATATATTCTACAAAATTATGAATGGAAATA
- binding signal (AP2-HC D1): 9.51 ln median PBM intensity, better of two orientations

B22: CACACA_site7658 (dsDNA)
DNA 1: AATAAAAAGGAACACACACACACACGGATATAAATA
DNA 2: TATTTATATCCGTGTGTGTGTGTGTTCCTTTTTATT
- binding signal (AP2-HC D1): 11.7 ln median PBM intensity, better of two orientations
- binding signal (PF3D7_0420300 D1): 10.5 ln median PBM intensity, better of two orientations

B23: CACACA_negctrl_site1512 (dsDNA)
DNA 1: ACGAATTAAATGGATTAATATATATATGTATATTTA
DNA 2: TAAATATACATATATATATTAATCCATTTAATTCGT
- binding signal (AP2-HC D1): 9.5 ln median PBM intensity, better of two orientations

B24: CACACA_negctrl_site1235 (dsDNA)
DNA 1: TTTAAAAAAAAAAAAAAAAAAAAAAAAAAAAATTTG
DNA 2: CAAATTTTTTTTTTTTTTTTTTTTTTTTTTTTTAAA
- binding signal (AP2-HC D1): 9.1 ln median PBM intensity, better of two orientations
- binding signal (PF3D7_0420300 D1): 8.59 ln median PBM intensity, better of two orientations

B25: CACACA_negctrl_site215 (dsDNA)
DNA 1: ATAAAATATTATATATATATATATATATATATATAT
DNA 2: ATATATATATATATATATATATATATAATATTTTAT
- binding signal (AP2-HC D1): 9.5 ln median PBM intensity, better of two orientations

B26: CACACA_negctrl_site1 (dsDNA)
DNA 1: TTTTTTATTGTGATACGTATATTATTTTTTGATAAA
DNA 2: TTTATCAAAAAATAATATACGTATCACAATAAAAAA
- binding signal (AP2-HC D1): 9.51 ln median PBM intensity, better of two orientations

B27: CACACA_negctrl_site49 (dsDNA)
DNA 1: AATATATAAATATATATAAATAAATATATATATAAA
DNA 2: TTTATATATATATTTATTTATATATATTTATATATT
- binding signal (AP2-HC D1): 9.5 ln median PBM intensity, better of two orientations
- binding signal (PF3D7_0420300 D1): 8.92 ln median PBM intensity, better of two orientations

B28: CACACA_site365 (dsDNA)
DNA 1: CACCCCCACAGACACACACACACACCCACATATATA
DNA 2: TATATATGTGGGTGTGTGTGTGTGTCTGTGGGGGTG
- binding signal (AP2-HC D1): 10.8 ln median PBM intensity, better of two orientations
- binding signal (PF3D7_0420300 D1): 10.4 ln median PBM intensity, better of two orientations

B29: CACACA_negctrl_site1564 (dsDNA)
DNA 1: AAAATGTCCCGTAGAAAATAAATTTATTACGCAATA
DNA 2: TATTGCGTAATAAATTTATTTTCTACGGGACATTTT
- binding signal (AP2-HC D1): 9.41 ln median PBM intensity, better of two orientations
- binding signal (PF3D7_0420300 D1): 9.06 ln median PBM intensity, better of two orientations

B30: CACACA_negctrl_site1092 (dsDNA)
DNA 1: TCAAAATGTGACATAAAAGAAAAAAAAAAAAAAAAA
DNA 2: TTTTTTTTTTTTTTTTTCTTTTATGTCACATTTTGA
- binding signal (AP2-HC D1): 9 ln median PBM intensity, better of two orientations
- binding signal (PF3D7_0420300 D1): 8.62 ln median PBM intensity, better of two orientations
